How the values were obtained:
MDA-MB-231 cells = assay: In vitro anti-proliferative activity (CCK8); format: cell-based; conditions: Breast cancer, read-out: Proliferation inhibition rate IC50±SD
Description: (§1) The cell lines used in this example, including MCF-7, MDA-MB-231, NCI-N87, NCI-H446, HT-29, HCC827, and HCC1187 cells, were purchased from Cobioer Biosciences, Nanjing, and Yuchi Biology, Shanghai, and cultured according to the corresponding instructions. The above cells in logarithmic growth phase were inoculated into 96-well cell culture plates at a density of 250 to 1500 cells per well (depending on the growth rate of different cells) at 150 µL/well, and cultured at 37°C, 5% CO2 for about 3 to 5 hours. Then, mAb001c-vcMMAE at different concentrations were added, each drug concentration in 2 to 4 replicates, as well as the corresponding vehicle control and blank control wells. After 5 to 6 days of action (depending on the cell growth rate, to ensure a sufficient number of cell divisions), the culture medium was removed and CCK8 reaction solution (purchased from MCE, cat# HY-K0301) was added at 100 µL/well. The reaction was carried out at 37°C until the expected color depth. The cell viability (OD450 nm) of each group was measured, and the cell survival rate was calculated according to the following formula: survival rate = (OD drug-OD blank)/(OD control-OD blank) × 100%. The above data were analyzed by GraphPad Prism 5 software, and the IC50 values of the above ROR1 antibody-drug conjugates for different cell lines were calculated.
(§2) The cell lines used in this example, including breast cancer cell lines MCF-7, SK-BR-3, MDA-MB-231, and HCC1187, colorectal cancer cell lines HT-29, SK-CO-1, and COLO-678, lung cancer cell lines HCC827, and H446, ovarian cancer cell line PA-1, gastric cancer cell line NCI-N87, were purchased from Cobioer Biosciences, Nanjing, and Yuchi Biology, Shanghai, and cultured according to the corresponding instructions. The CCK8 method was used to determine the in vitro killing activity of Hu001-2-MMAE, Hu001-3-MMAE, Hu005-44-MMAE, and Hu005-46-MMAE against various cancer cells, as well as UC961-MMAE as a positive reference. The implementation method was referred to Example 13.

PA-1 cells = assay: In vitro anti-proliferative activity (CCK8); format: cell-based; conditions: Ovarian cancer, read-out: Proliferation inhibition rate IC50±SD
Description: as §1, §2

SK-CO-1 cells = assay: In vitro anti-proliferative activity (CCK8); format: cell-based; conditions: Bowel cancer, read-out: Proliferation inhibition rate IC50±SD
Description: as §1, §2

MCF-7 cells = assay: In vitro anti-proliferative activity (CCK8); format: cell-based; conditions: Breast cancer, read-out: Proliferation inhibition rate IC50±SD
Description: as §1, §2

HCC827 cells = assay: In vitro anti-proliferative activity (CCK8); format: cell-based; conditions: Lung cancer, read-out: Proliferation inhibition rate IC50±SD
Description: as §1, §2

NCI-H446 cells = assay: In vitro anti-proliferative activity (CCK8); format: cell-based; conditions: Lung cancer, read-out: Proliferation inhibition rate IC50±SD
Description: as §1, §2

NCI-N87 cells = assay: In vitro anti-proliferative activity (CCK8); format: cell-based; conditions: Gastric cancer, read-out: Proliferation inhibition rate IC50±SD
Description: as §1, §2

SK-BR-3 cells = assay: In vitro anti-proliferative activity (CCK8); format: cell-based; conditions: Breast cancer, read-out: Proliferation inhibition rate IC50±SD
Description: as §1, §2

HT-29 cells = assay: In vitro anti-proliferative activity (CCK8); format: cell-based; conditions: Bowel cancer, read-out: Proliferation inhibition rate IC50±SD
Description: as §1, §2

HCC1187 cells = assay: In vitro anti-proliferative activity (CCK8); format: cell-based; conditions: Breast cancer, read-out: Proliferation inhibition rate IC50±SD
Description: as §1, §2

COLO-678 cells = assay: In vitro anti-proliferative activity (CCK8); format: cell-based; conditions: Bowel cancer, read-out: Proliferation inhibition rate IC50±SD
Description: as §1, §2

HCC1187 tumors = assay: In vivo antitumor activity, subcutaneous tumor model; set-up: species or system immunodeficient mice (NCG or Balb/c-nude); conditions: for Tumor inhibition rate (%): day 21
Description: (§3) 200 µL of cell matrix gel suspension containing 5 × 10^6 MDA-MB-231, 1 × 10^7 HCC1187, 1 × 10^7 PA-1, or 5 × 10^6 NCI-N87 was inoculated subcutaneously on the back of immunodeficient mice (NCG or Balb/c-nude). When the tumor volume grew to 100 to 300 mm3, the mice were randomly divided into groups (n=8 to 10) according to the tumor volume and nude mouse weight. The mice were dosed at doses of 5 mg/kg and 2.5 mg/kg once a week through the tail vein for a total of 3 weeks, as well as a group with PBS set as a negative control. The tumor volume and nude mouse weight were measured and recorded 2 to 3 times a week to plot the tumor growth curve. The formula for calculating tumor volume (V) is: V=1/2×a×b2, where a and b represent the length and width of the tumor, respectively.

PA-1 tumors = assay: as above; set-up: species or system immunodeficient mice (NCG or Balb/c-nude); conditions: PA-1 model; for Tumor inhibition rate (%): day 28
Description: as §3

NCI-N87 tumors = assay: as above; set-up: species or system immunodeficient mice (NCG or Balb/c-nude); conditions: for Tumor inhibition rate (%): day 21
Description: as §3

[1] = 2.5mg/kg once a week x3, tail vein
[2] = 5mg/kg once a week x3, tail vein

B1: UC961-MMAE: UC961 coupled with vcMMAE, prepared as a positive reference, average DAR about 3.95 (conjugate)
VH: QVQLQESGPGLVKPSQTLSLTCTVSGYAFTAYNIHWVRQAPGQGLEWMGSFDPYDGGSSYNQKFKDRLTISKDTSKNQVVLTMTNMDPVDTATYYCARGWYYFDYWGHGTLVTVSS
VL: DIVMTQTPLSLPVTPGEPASISCRASKSISKYLAWYQQKPGQAPRLLIYSGSTLQSGIPPRFSGSGYGTDFTLTINNIESEDAAYYFCQQHDESPYTFGEGTKVEIK
B1 showed an IC50 (MDA-MB-231 cells) of 13.5 ± 3.61 nM, an IC50 (PA-1 cells) of 3.35 ± 0.12 nM and an IC50 (SK-CO-1 cells) of 5.75 ± 2.46 nM. The IC50 (MCF-7 cells) was over 100 nM, the IC50 (HCC827 cells) was 45.3 ± 25.7 nM and the IC50 (NCI-H446 cells) was 11.6 ± 2.52 nM. It also gave an IC50 (NCI-N87 cells) of 11.2 ± 2.47 nM, an IC50 (SK-BR-3 cells) of over 100 nM and an IC50 (HT-29 cells) of 24.6 ± 1.04 nM. For the same molecule, the IC50 (HCC1187 cells) was 3 ± 1.5 nM, the IC50 (COLO-678 cells) was 19.1 ± 0.78 nM and the “Tumor volume ± SE (mm^3) on day 21th of administration” value (from here on “Tumor volume ± SE (mm^3) on day 21th”) (HCC1187 tumors; [1]) was 2576.56±461.28 mm^3. For the same molecule, the “Tumor inhibition rate (%)” value (HCC1187 tumors; 2.5mg/kg) was 15.18%, the “Tumor volume ± SE (mm^3) on day 21th” value (HCC1187 tumors; [2]) was 407.09±69.85 mm^3 and the “Tumor inhibition rate (%)” value (HCC1187 tumors; 5mg/kg) was 86.60%. For the same molecule, the “Tumor volume ± SE (mm^3) on day 28th of administration” value (PA-1 tumors; [1]) was 1032.13±123.29 mm^3, the “Tumor inhibition rate (%)” value (PA-1 tumors; 2.5mg/kg) was 32.09% and the “Tumor volume ± SE (mm^3) on day 28th of administration” value (PA-1 tumors; [2]) was 44.67±3.04 mm^3. For the same molecule, the “Tumor inhibition rate (%)” value (PA-1 tumors; 5mg/kg) was 97.06%, the “Tumor volume ± SE (mm^3) on day 21th” value (NCI-N87 tumors; [1]) was 2010.44±266.07 mm^3 and the “Tumor inhibition rate (%)” value (NCI-N87 tumors; 2.5mg/kg) was 19.87%. The “Tumor volume ± SE (mm^3) on day 21th” value (NCI-N87 tumors; [2]) was 1171.18±130.32 mm^3 and the “Tumor inhibition rate (%)” value (NCI-N87 tumors; 5mg/kg) was 53.32%.

— patent EP4585616A1, “ANTIBODY CAPABLE OF SPECIFICALLY BINDING TO ROR1, […] THEREOF, AND PREPARATION METHOD THEREFOR AND USE THEREOF” (Hefei Institutes of Physical Science, Chinese Academy of …, priority 2022, dated 2024)
